The results in this text go back to article PMC6706441, “B1 oligomerization regulates PML nuclear body biogenesis and leukemogenesis” (Nature Communications, 2019).

Substitutions are numbered along the chain they refer to. Names may count otherwise. “And” between values parts separate entries of the source, which are not always exact repeats. Equal values may be shown once.

Series [1] deals with the molecule itself. As to the kind of experiment: AUC; sedimentation velocity of the gel filtration peaks; Beckman XL-1, 130,000 g, 20 °C, >12 h; 20 mM Tris, pH 8.0, 100 mM NaCl; SEDFIT continuous c(s) model.
Series [2] concerns the molecule itself. Nature of the series: cross-linking; 0.3 μg purified HA-PML(1–256) with increasing glutaraldehyde, on ice 30 min, 20 mM Hepes pH 7.4; 4–12% SDS-PAGE, anti-HA immunoblot.
Series [3] concerns the molecule itself. As to the kind of experiment: SEC; gel filtration on a calibrated Superdex 200 column; 20 mM Tris, pH 8.0, 100 mM NaCl. (SEC sorts molecules by how far they enter the pores of the column.)
Series [4] concerns the molecule itself. Nature of the series: crystal structure; vapor diffusion, protein 38 mg/ml; 30% PEG 6000, 1 M lithium chloride, 100 mM sodium acetate; Zn SAD; oligomers from the asymmetric unit and crystal packing.
Series [5] deals with the molecule itself. As to the kind of experiment: cross-linking; 5 μg purified B1 with 0.05, 0.1, 0.2% (w/v) glutaraldehyde, on ice 30 min, 20 mM Hepes pH 7.4; 8–16% SDS-PAGE, coomassie.

B1: PML_(1–256) I122P/V123P (domain or fragment, UniProt P29590-1 1-256, looked up)
chain: MEPAPARSPRPQQDPARPQEPTMPPPETPSEGRQPSPSPSPTERAPASEEEFQFLRCQQCQAEAKCPKLLPCLHTLCSGCLEASGMQCPICQAPWPLGADTPALDNVFFESLQRRLSVYRQPPDAQAVCTRCKESADFWCFECEQLLCAKCFEAHQWFLKHEARPLAELRNQSVREFLDGTRKTNNIFCSNPNHRTPTLTSIYCRGCSKPLCCSCALLDSSHSELKCDISAEIQQRQEELDAMTQALQEQDSAFGA
notes: PML (TRIM19), residues 1-256, double mutant I122P/V123P; source: E. coli BL21 (DE3), purified (His-Trap, thrombin, Q, Phenyl, Superdex 200); not shown: SUMO (human), N-terminal, cleaved; His tag, N-terminal, cleaved
Turning to B1, in series [1], the binding result was “binds”.

B2: HA-PML_(1–256) I122P/V123P (domain or fragment, UniProt P29590-1 1-256, looked up)
chain: B1 chain
notes: PML (TRIM19), residues 1-256, double mutant I122P/V123P; See note of m9; source: purified
For the protein B2, the binding result in series [2] is given as “binds”.

B3: PML_(1–256) F158E (domain or fragment, UniProt P29590-1 1-256, looked up)
chain: B1 chain with P122I, P123V, F158E
notes: PML (TRIM19), residues 1-256, mutant F158E; source: E. coli BL21 (DE3), purified (His-Trap, thrombin, Q, Phenyl, Superdex 200); not shown: SUMO (human), N-terminal, cleaved; His tag, N-terminal, cleaved
As to B3, in series [3], the binding result was “binds”.

B4: PML RBCC fragment, residues 1-256 (RING, B1, B2 and a 20-residue coiled-coil), wild type (domain or fragment, UniProt P29590-1 1-256, looked up)
chain: B1 chain with P122I, P123V
notes: PML (TRIM19), residues 1-256: RING, B1-box, B2-box and a 20-residue coiled-coil; His tag lay between SUMO and PML; SUMO-His removed after thrombin digestion; Mixture of monomer, dimer, tetramer and N-mer in solution; also called PML_(1–256); RBCC_(1–256); source: E. coli BL21 (DE3), purified (His-Trap, thrombin, Q, Phenyl, Superdex 200); not shown: SUMO (human), N-terminal, cleaved; His tag, …
B4: in series [1], the stoichiometry N – broadly, a count of units in the complex or per binding partner – was 2 and 4.

B5: PML_(1–256) W157E (domain or fragment, UniProt P29590-1 1-256, looked up)
chain: B1 chain with P122I, P123V, W157E
notes: PML (TRIM19), residues 1-256, mutant W157E; source: E. coli BL21 (DE3), purified (His-Trap, thrombin, Q, Phenyl, Superdex 200); not shown: SUMO (human), N-terminal, cleaved; His tag, N-terminal, cleaved
Regarding B5, the binding result in series [3] was “binds”.

B6: PML B1-box, residues 120-168, wild type (domain or fragment, UniProt P29590 120-168, looked up)
chain: RQIVDAQAVCTRCKESADFWCFECEQLLCAKCFEAHQWFLKHEARPLAE
notes: PML (TRIM19) B1-box, residues 120-168; residues 120-167 are seen in the crystallographic monomer; Four molecules in the asymmetric unit; also called WT B1; source: E. coli BL21 (DE3), purified (His-Trap, thrombin, Q, Phenyl, S100); not shown: His tag, N-terminal, cleaved
For the protein B6, the binding result in series [4] is given as “binds”.

B7: PML B1-box I122P/V123P (domain or fragment, UniProt P29590 120-168, looked up)
chain: B6 chain with I3P, V4P
notes: PML (TRIM19) B1-box, residues 120-168, double mutant I122P/V123P; PDB 6IMQ holds the wild-type parent; source: E. coli BL21 (DE3), purified (His-Trap, thrombin, Q, Phenyl, S100); not shown: His tag, N-terminal, cleaved
Take B7: the binding result in series [5] is “binds”.
